In the supplement of paper PMC9112550, “Optimization of the antimicrobial peptide Bac7 by deep mutational scanning” (BMC Biology, 2022):

Tested on: Escherichia coli TOP10
Assay: shrunken log2 fold change of peptide-encoding DNA abundance (4.5 h post-induction vs induction); higher = less antimicrobial activity (less host growth inhibition)
Details: time post-induction: 4.5 h; library: site-saturation at positions 5, 18, 19, 20
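Further: peptides expressed intracellularly from a pBAD plasmid library in pooled LB shake-flask culture, induced with 0.3% L-arabinose, DNA abundance read by NGS, three biological replicates, DESeq2 with apeglm shrinkage.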

| Sequence | shrunken log2 fold change |
| --- | --- |
| RRIRPRPPRLPRPRPRPEDFPRP | -0.0193 |
| RRIRPRPPRLPRPRPRPEDRPRP | 0.0448 |
| RRIRPRPPRLPRPRPRPEEKPRP | -0.0155 |
| RRIRPRPPRLPRPRPRPEEQPRP | 0.00406 |
| RRIRPRPPRLPRPRPRPEFAPRP | 0.602 |
| RRIRPRPPRLPRPRPRPEHGPRP | -0.0552 |
| RRIRPRPPRLPRPRPRPEKPPRP | -0.129 |
| RRIRPRPPRLPRPRPRPENQPRP | 0.0738 |
| RRIRPRPPRLPRPRPRPEQAPRP | 0.0776 |
| RRIRPRPPRLPRPRPRPEQNPRP | -0.199 |
| RRIRPRPPRLPRPRPRPESTPRP | 0.118 |
| RRIRPRPPRLPRPRPRPESWPRP | 1.54 |
| RRIRPRPPRLPRPRPRPEWCPRP | -0.0771 |
| RRIRPRPPRLPRPRPRPEWVPRP | 0.332 |
| RRIRPRPPRLPRPRPRPEYDPRP | 0.101 |
| RRIRPRPPRLPRPRPRPEYPPRP | 0.045 |
| RRIRPRPPRLPRPRPRPEYTPRP | -0.0863 |
| RRIRPRPPRLPRPRPRPFAKPRP | 0.0716 |
| RRIRPRPPRLPRPRPRPFATPRP | 0.0676 |
| RRIRPRPPRLPRPRPRPFAWPRP | 0.169 |
| RRIRPRPPRLPRPRPRPFCDPRP | -0.233 |
| RRIRPRPPRLPRPRPRPFCGPRP | 0.00967 |
| RRIRPRPPRLPRPRPRPFDTPRP | -0.126 |
| RRIRPRPPRLPRPRPRPFFAPRP | 0.468 |
| RRIRPRPPRLPRPRPRPFINPRP | -0.382 |

| Sequence | shrunken log2 fold change |
| --- | --- |
| RRIRPRPPRLPRPRPRPFIPPRP | -0.266 |
| RRIRPRPPRLPRPRPRPFIRPRP | 0.00477 |
| RRIRPRPPRLPRPRPRPFITPRP | -0.678 |
| RRIRPRPPRLPRPRPRPFLDPRP | -0.413 |
| RRIRPRPPRLPRPRPRPFLQPRP | -0.207 |
| RRIRPRPPRLPRPRPRPFMGPRP | -0.448 |
| RRIRPRPPRLPRPRPRPFMYPRP | -0.0369 |
| RRIRPRPPRLPRPRPRPFNPPRP | -0.296 |
| RRIRPRPPRLPRPRPRPFPNPRP | -0.0765 |
| RRIRPRPPRLPRPRPRPFPTPRP | -0.189 |
| RRIRPRPPRLPRPRPRPFQAPRP | -0.216 |
| RRIRPRPPRLPRPRPRPFQFPRP | -0.467 |
| RRIRPRPPRLPRPRPRPFRSPRP | -0.152 |
| RRIRPRPPRLPRPRPRPFTLPRP | -0.379 |
| RRIRPRPPRLPRPRPRPFTNPRP | -0.286 |
| RRIRPRPPRLPRPRPRPFTYPRP | -0.0519 |
| RRIRPRPPRLPRPRPRPFVIPRP | 0.00225 |
| RRIRPRPPRLPRPRPRPFVNPRP | -0.196 |
| RRIRPRPPRLPRPRPRPFYEPRP | -0.105 |
| RRIRPRPPRLPRPRPRPGAMPRP | 0.454 |
| RRIRPRPPRLPRPRPRPGCLPRP | 0.339 |
| RRIRPRPPRLPRPRPRPGCTPRP | 0.104 |
| RRIRPRPPRLPRPRPRPGDEPRP | 0.156 |
| RRIRPRPPRLPRPRPRPGDLPRP | 0.076 |
| RRIRPRPPRLPRPRPRPGFNPRP | -0.173 |

| Sequence | shrunken log2 fold change |
| --- | --- |
| RRIRPRPPRLPRPRPRPGGNPRP | -0.0884 |
| RRIRPRPPRLPRPRPRPGHNPRP | -0.133 |
| RRIRPRPPRLPRPRPRPGKAPRP | 0.37 |
| RRIRPRPPRLPRPRPRPGMYPRP | -0.0544 |
| RRIRPRPPRLPRPRPRPGPTPRP | 0.0907 |
| RRIRPRPPRLPRPRPRPGQWPRP | 0.236 |
| RRIRPRPPRLPRPRPRPGRAPRP | 0.549 |
| RRIRPRPPRLPRPRPRPGRWPRP | 0.551 |
| RRIRPRPPRLPRPRPRPGSEPRP | 0.0814 |
| RRIRPRPPRLPRPRPRPGSMPRP | -0.149 |
| RRIRPRPPRLPRPRPRPGSPPRP | 0.0761 |
| RRIRPRPPRLPRPRPRPGTNPRP | 1.46 |
| RRIRPRPPRLPRPRPRPGTPPRP | 0.0946 |
| RRIRPRPPRLPRPRPRPGTQPRP | 0.185 |
| RRIRPRPPRLPRPRPRPGTRPRP | 0.134 |
| RRIRPRPPRLPRPRPRPGVAPRP | 0.27 |
| RRIRPRPPRLPRPRPRPGVKPRP | -0.0608 |
| RRIRPRPPRLPRPRPRPGWAPRP | 0.623 |
| RRIRPRPPRLPRPRPRPGWVPRP | 0.405 |
| RRIRPRPPRLPRPRPRPGYAPRP | 0.177 |
| RRIRPRPPRLPRPRPRPHAMPRP | -0.0838 |
| RRIRPRPPRLPRPRPRPHAVPRP | 0.0549 |
| RRIRPRPPRLPRPRPRPHCFPRP | -0.497 |
| RRIRPRPPRLPRPRPRPHCNPRP | -0.52 |
| RRIRPRPPRLPRPRPRPHGLPRP | 0.026 |

| Sequence | shrunken log2 fold change |
| --- | --- |
| RRIRPRPPRLPRPRPRPHHQPRP | -0.399 |
| RRIRPRPPRLPRPRPRPHHYPRP | -0.37 |
| RRIRPRPPRLPRPRPRPHILPRP | -0.381 |
| RRIRPRPPRLPRPRPRPHIMPRP | -0.663 |
| RRIRPRPPRLPRPRPRPHKEPRP | 0.163 |
| RRIRPRPPRLPRPRPRPHLRPRP | 0.151 |
| RRIRPRPPRLPRPRPRPHLWPRP | 0.181 |
| RRIRPRPPRLPRPRPRPHMFPRP | 0.00976 |
| RRIRPRPPRLPRPRPRPHNRPRP | -0.0456 |
| RRIRPRPPRLPRPRPRPHPFPRP | -0.115 |
| RRIRPRPPRLPRPRPRPHQEPRP | 4.12 |
| RRIRPRPPRLPRPRPRPHQSPRP | 0.238 |
| RRIRPRPPRLPRPRPRPHRLPRP | -0.0226 |
| RRIRPRPPRLPRPRPRPHRPPRP | 0.0359 |
| RRIRPRPPRLPRPRPRPHTMPRP | -0.143 |
| RRIRPRPPRLPRPRPRPHVGPRP | -0.0279 |
| RRIRPRPPRLPRPRPRPHVHPRP | -0.254 |
| RRIRPRPPRLPRPRPRPHVIPRP | -0.617 |
| RRIRPRPPRLPRPRPRPHWGPRP | 0.0167 |
| RRIRPRPPRLPRPRPRPHYGPRP | -0.569 |
| RRIRPRPPRLPRPRPRPHYPPRP | -0.0221 |
| RRIRPRPPRLPRPRPRPIACPRP | 0.0852 |
| RRIRPRPPRLPRPRPRPICMPRP | -0.343 |
| RRIRPRPPRLPRPRPRPIFEPRP | 0.154 |
| RRIRPRPPRLPRPRPRPIHEPRP | 0.152 |

| Sequence | shrunken log2 fold change |
| --- | --- |
| RRIRPRPPRLPRPRPRPIIVPRP | -0.178 |
| RRIRPRPPRLPRPRPRPIKVPRP | -0.468 |
| RRIRPRPPRLPRPRPRPIKYPRP | 0.32 |
| RRIRPRPPRLPRPRPRPINDPRP | -0.178 |
| RRIRPRPPRLPRPRPRPIPCPRP | -0.172 |
| RRIRPRPPRLPRPRPRPIPQPRP | -0.321 |
| RRIRPRPPRLPRPRPRPIRPPRP | 0.184 |
| RRIRPRPPRLPRPRPRPIRSPRP | 0.00396 |
| RRIRPRPPRLPRPRPRPITHPRP | -0.117 |
| RRIRPRPPRLPRPRPRPITIPRP | -0.197 |
| RRIRPRPPRLPRPRPRPITWPRP | -0.0578 |
| RRIRPRPPRLPRPRPRPIVWPRP | 0.0606 |
| RRIRPRPPRLPRPRPRPIYMPRP | -0.306 |
| RRIRPRPPRLPRPRPRPIYRPRP | -0.158 |
| RRIRPRPPRLPRPRPRPIYTPRP | -0.245 |
| RRIRPRPPRLPRPRPRPKADPRP | 0.0968 |
| RRIRPRPPRLPRPRPRPKCMPRP | -0.222 |
| RRIRPRPPRLPRPRPRPKCPPRP | 0.131 |
| RRIRPRPPRLPRPRPRPKEVPRP | -0.0501 |
| RRIRPRPPRLPRPRPRPKFCPRP | 0.189 |
| RRIRPRPPRLPRPRPRPKGAPRP | 0.21 |
| RRIRPRPPRLPRPRPRPKGFPRP | 0.0275 |
| RRIRPRPPRLPRPRPRPKGGPRP | 1.33 |
| RRIRPRPPRLPRPRPRPKGWPRP | 1.22 |
| RRIRPRPPRLPRPRPRPKHDPRP | -0.0113 |

| Sequence | shrunken log2 fold change |
| --- | --- |
| RRIRPRPPRLPRPRPRPKICPRP | -0.0701 |
| RRIRPRPPRLPRPRPRPKIYPRP | -0.000172 |
| RRIRPRPPRLPRPRPRPKKHPRP | -0.0812 |
| RRIRPRPPRLPRPRPRPKKSPRP | 0.085 |
| RRIRPRPPRLPRPRPRPKLFPRP | 0.18 |
| RRIRPRPPRLPRPRPRPKNHPRP | -0.282 |
| RRIRPRPPRLPRPRPRPKPYPRP | -0.0782 |
| RRIRPRPPRLPRPRPRPKQVPRP | -0.0541 |
| RRIRPRPPRLPRPRPRPKSEPRP | 0.197 |
| RRIRPRPPRLPRPRPRPKSNPRP | -0.37 |
| RRIRPRPPRLPRPRPRPKWCPRP | 0.0741 |
| RRIRPRPPRLPRPRPRPKWLPRP | 0.198 |
| RRIRPRPPRLPRPRPRPKWYPRP | -0.161 |
| RRIRPRPPRLPRPRPRPKYQPRP | -0.411 |
| RRIRPRPPRLPRPRPRPLAFPRP | -0.0389 |
| RRIRPRPPRLPRPRPRPLAPPRP | 0.33 |
| RRIRPRPPRLPRPRPRPLDGPRP | 0.0208 |
| RRIRPRPPRLPRPRPRPLEEPRP | 0.215 |
| RRIRPRPPRLPRPRPRPLEQPRP | 0.169 |
| RRIRPRPPRLPRPRPRPLFGPRP | 0.142 |
| RRIRPRPPRLPRPRPRPLKEPRP | -0.228 |
| RRIRPRPPRLPRPRPRPLKRPRP | -0.161 |
| RRIRPRPPRLPRPRPRPLKTPRP | -0.000587 |
| RRIRPRPPRLPRPRPRPLNFPRP | -0.139 |
| RRIRPRPPRLPRPRPRPLQNPRP | -0.179 |
